B1: Nb95 (VHH)
VHH: QVQLVESGGGLVQAGGSLRLSCAASGRTFSSYSMGWFRQAQGKEREFVATINGNGRDTYYTNSVKGRFTISRDDATNTVYLQMNSLKPEDTAIYYCAADKDVYYGYTSFPNEYEYWGQGTQVTVS
B2: Nb64 (VHH)
VHH: QVQLVESGGGLVQAGGSLRLSCAVSGRTFSIAGMGWFRQAPGKDREFLGGITWNDGTTWYADSVKGRFTISRDNAKNMLSLRMNSLKPEDTAVYYCAAGPRLGSTPRAYDYWGQGTQVTVS
B3: Nb93 (VHH)
VHH: EVQLVESGGGLVQPGGSLRLSCAASGFTFSSYAMSWVRQAPGKGREWVAGITPGSGTFYADSVKGRFTISRDNAKNTLSLEINSLKPEDTALYYCAKCRQEFSWDFSSRDPDDFDYWGQGTQVTVS
B4: Nb9 (VHH)
VHH: HVQLVESGGGLVQTGGSLRLSCAFSGYTFSTFPTAWFRQAPGKEREFVAGIRWNGGSRDYTEYADFVKGRFTISRDNAKNMIYLQMISLKPEDTALYYCAASHGVVDGTSVNGYRYWGQGTQVTVS
B5: Nb105 (VHH)
VHH: HVQLVESGGGLVQAGGSLRLSCAVSGRTFSTYGMAWFRQAPGKERDFVATITRSGETTLYADSVKGRFTISRDNAKNTVYLQMNSLKIEDTAVYYCAVRRDSSWGYSRDLFEYDYWGQGTQVTVS
B6: humanized Nb21 (hNb21) (VHH)
VHH: QVQLVESGGGLVQPGGSLRLSCAASWFRRAPGKEREFVAYADSVKGRFTISRDNAKNTLYLQMNSLRAEDTAVYYCAAWGQGTLVTVS
B7: Nb34 (VHH)
VHH: DVQLVESGGGLVQAGGSLRLSCAASGFTFSNYVMYWGRQAPGKGREWVSGIDSDGSDTAYASSVKGRFTISRDNAKNTLYLQMNNLKPEDTALYYCVKSKDPYGSPWTRSEFDDYWGQGTQVTVS
B8: Nb17 (VHH)
VHH: HVQLVESGGGLVQAGGSLRLSCAASGSIFSSNAMSWYRQAPGKQRELVASITSGGNADYADSVKGRFTISRDKNTVYPEMSSLKPADTAVYYCHAVGQEASAYAPRAYWGQGTQVTVS
B9: Nb21 WT (VHH)
VHH: QVQLVESGGGLVQAGGSLRLSCAVSGLGAHRVGWFRRAPGKEREFVAAIGANGGNTNYLDSVKGRFTISRDNAKNTIYLQMNSLKPQDTAVYYCAARDIETAEYTYWGQGTQVTVSS

The binders below were run against RBD (SARS-CoV-2 spike) (SARS-CoV-2, UniProt P0DTC2 319-541) (assay: ELISA).

| Binder | EC50 |
| --- | --- |
| B1 | 3.77 nM |
| B2 | 1.22 nM |
| B3 | 1.13 nM |
| B4 | 2.76 nM |
| B5 | 1.69 nM |
| B6 | 1.34 nM |
| B7 | 0.53 nM |
| B8 | 0.97 nM |

The binders below were run against RBD (SARS-CoV-2, UniProt P0DTC2 319-541) (assay: ELISA).

| Binder | EC50 |
| --- | --- |
| B9 | 1.69 nM |

— patent publication US20250336476A1 (published 2025)
